The stoichiometry N is the number of molecules, sites or subunits per partner or assembly.

Four substances from publication PMC9063845 can be followed below.

Experiment in all cases: SEC; preparative HiLoad 16/600 Superdex 200 pg (120 ml), 20 mM HEPES, 50 mM NaCl pH 7.5; elution at ~85 ml compared with protein standards (~60 kDa)
On the technique in general: SEC sorts molecules by how far they enter the pores of the column.

Test [1] deals with amilCP (Acropora millepora).
Test [2] has as its target spisPink (Stylophora pistillata).
Test [3] deals with gfasPurple (Galaxea fascicularis).
Test [4] deals with eforRed (Echinopora forsaliana).

With amilCP (natural protein), the stoichiometry N in test [1] is 2.
The substance spisPink (natural protein) yielded a stoichiometry N in test [2] of 2.
On to gfasPurple (natural protein), for which, in test [3], the stoichiometry N worked out at 2.
Regarding eforRed (natural protein), in test [4], the stoichiometry N worked out at 2.
